Results taken from patent EP2922560B1 (Biotechnologicky Ustav AV CR, v.v.i., dated 2017).
Where a chain is given by its changes, count along the chain named.

How the values were obtained:
[1] = biological target: T1, native human IL-23 receptor on the surface of cultured human cells (K-562, THP-1, Jurkat) and primary human … (human, UniProt Q5VWK5 24-629); experiment: cell-based or functional assay
T1 sequence (looked up): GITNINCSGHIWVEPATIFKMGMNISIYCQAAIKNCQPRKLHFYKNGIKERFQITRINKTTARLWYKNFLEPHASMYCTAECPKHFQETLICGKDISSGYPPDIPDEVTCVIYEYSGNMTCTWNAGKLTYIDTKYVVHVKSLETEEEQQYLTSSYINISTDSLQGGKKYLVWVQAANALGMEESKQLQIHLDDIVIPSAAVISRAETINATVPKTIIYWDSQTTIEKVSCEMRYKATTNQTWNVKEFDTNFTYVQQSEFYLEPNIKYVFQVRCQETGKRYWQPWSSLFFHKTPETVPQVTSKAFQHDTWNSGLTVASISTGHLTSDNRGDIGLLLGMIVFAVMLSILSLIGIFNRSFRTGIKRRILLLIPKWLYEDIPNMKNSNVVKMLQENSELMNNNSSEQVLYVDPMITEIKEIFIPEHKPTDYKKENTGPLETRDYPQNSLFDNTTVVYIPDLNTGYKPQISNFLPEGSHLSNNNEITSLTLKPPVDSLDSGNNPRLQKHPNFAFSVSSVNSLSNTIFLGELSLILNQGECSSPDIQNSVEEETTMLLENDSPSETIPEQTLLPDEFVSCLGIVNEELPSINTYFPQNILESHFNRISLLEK

[2] = biological target: T2, recombinant human IL-23R-IgG chimera (R&D Systems) (human, UniProt Q5VWK5 24-353, glycosylated); experiment: SPR, REX125-TolA-AVI immobilized, IL-23R-IgG chimera flowed, sodium acetate buffer pH 5.0, 25°C; more complex interaction mode
T2 construct: bought; soluble, glycosylated, secreted by an NS0-derived mouse myeloma cell line; also called IL-23R-IgG receptor chimera

[3] = biological target: T2, recombinant human IL-23R-IgG chimera …; experiment: SPR, REX009-TolA-AVI immobilized, IL-23R-IgG chimera 20-200 nM flowed, sodium acetate buffer pH 5.0, 25°C, 1:1 model, global fit
[4] = biological target: T3, H-exIL-23R, N-terminally His6-tagged extracellular domain of human IL-23 receptor (residues 24 to 350) (human, UniProt Q5VWK5 24-350); experiment: ELISA, immobilized exIL-23R (Figure 1 legend)
T3 construct: range 24-350; also called recombinant extracellular IL-23 receptor; not shown: N-terminal His6 tag
T3 sequence (looked up): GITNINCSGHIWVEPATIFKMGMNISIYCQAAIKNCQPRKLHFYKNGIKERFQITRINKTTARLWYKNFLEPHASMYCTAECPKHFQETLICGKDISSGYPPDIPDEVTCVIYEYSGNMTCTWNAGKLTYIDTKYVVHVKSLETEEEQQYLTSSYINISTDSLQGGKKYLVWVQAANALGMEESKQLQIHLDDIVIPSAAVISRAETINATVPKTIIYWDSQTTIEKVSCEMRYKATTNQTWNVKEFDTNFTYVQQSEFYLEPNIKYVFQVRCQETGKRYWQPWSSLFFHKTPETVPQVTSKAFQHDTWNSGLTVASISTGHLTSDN

[5] = biological target: T3, H-exIL-23R, N-terminally His6-tagged …; experiment: ELISA, immobilized H-exIL-23R; confirmed in the reversed setup
[6] = biological target: T1, native human IL-23 receptor on the …; experiment: flow cytometry on THP-1 and K-562 cells, 10 µg/ml DH-p19, anti-p19 mAb and Cy5 anti-mouse IgG

B1: His6-REX125-TolA-AVI (designed binder)
chain: LAEAKVLANRELDKYGVSDHYKNWINPARRVRPVKWLIDAILAALPQKQAEEAAAKAAADAKAKAEADAKAAEEAAKKAAADAKKKAEAEAAKAAAEAQKKAEAAAAALKKKAEAAEAAAAEARKKAATEAAEKAKAEAEKKAAAEKAAADKKAAAEKAAADKKAAEKAAAEKAAADKKAAAEKAAADKKAAAAKAAAEKAAAAKAAAEADDIFGELSSGKNAPKTGGGAKGNNASPAGSGNTKNNGASGADINNYAGQIKSAIESKFYDASSYAGKTCTLRIKLAPDGMLLDIKPEGGDPALCQAALAAAKLAKIPKPPSQAVYEVFKNAPLDFKPGLNDIFEAQKIEWHE
modifications: in vivo biotinylated at the AviTag (BirA)
notes: also called REX-TolA-AVI; not shown: N-terminal His6 tag
With B1 the “Th-17+ cell expansion (IL-17-producing cells) in PBMC suspensions after 3 days, normalized to IL-23 only = 1” value [1] was 0.42 normalized cell count (IL-23 only = 1), the “Th-17+ cell expansion in separated T-cell samples after 3 days, normalized to IL-23 only = 1” value [1] was 0.65 normalized cell count (IL-23 only = 1) and the Kd [2] was ~1 nM.

B2: His6-REX009-TolA-AVI (designed binder)
chain: B1 chain with H20Y, W24R, R29C, R30H, R32L, P33S, W36S, L37N, A40W, A44S
modifications: in vivo biotinylated at the AviTag (BirA)
notes: as for B1
B2 was tested, and the “Th-17+ cell expansion (IL-17-producing cells) in PBMC suspensions after 3 days, normalized to IL-23 only = 1” value [1] was 0.62 normalized cell count (IL-23 only = 1), the “Th-17+ cell expansion in separated T-cell samples after 3 days, normalized to IL-23 only = 1” value [1] was 0.8 normalized cell count (IL-23 only = 1) and the Kd [3] was 1.3 nM.

B3: His6-REX115-TolA-AVI (designed binder, not shown: small tags and cut ends)
chain: B1 chain with H20V, W24T, P27I, R29I, R30P, P33V, W36R, L37V, A40W, A44V
modifications: in vivo biotinylated at the AviTag (BirA)
For B3, the “Th-17+ cell expansion (IL-17-producing cells) in PBMC suspensions after 3 days, normalized to IL-23 only = 1” value [1] was 0.55 normalized cell count (IL-23 only = 1) and the “Th-17+ cell expansion in separated T-cell samples after 3 days, normalized to IL-23 only = 1” value [1] was 0.69 normalized cell count (IL-23 only = 1).

B4: DH-MBP-p19, double His6-maltose-binding protein-p19 fusion with C-terminal 40 aa prolongation (ligand, human)
chain: RAVPGGSSPAWTQCQQLSQKLCTLAWSAHPLVGHMDLREEGDEETTNDVPHIQCGDGCDPQGLRDNSQFCLQRIHQGLIFYEKLLGSDIFTGEPSLLPDSPVGQLHASLLGLSQLLQPEGHHWETQQIPSLSPSQPWQRLLLRFKILRSLQAFVAVAARVFAHGAATLSPLEKKTCTSRASSTTTTTTEIRLLTKPERKLSWLLPPLSNN
notes: 69 kDa, soluble, E. coli BL21(DE3), Ni-NTA purified; also called soluble p19; p19-MBP fusion protein; not shown: N-terminal double His6 tag; followed by TEV site and cloning-site residues that are not pri
B4: binds [4].

B5: DH-p19, mature p19 subunit of human IL-23 with N-terminal double-His6-TEV tag (ligand, UniProt Q9NPF7 20-189, looked up)
chain: RAVPGGSSPAWTQCQQLSQKLCTLAWSAHPLVGHMDLREEGDEETTNDVPHIQCGDGCDPQGLRDNSQFCLQRIHQGLIFYEKLLGSDIFTGEPSLLPDSPVGQLHASLLGLSQLLQPEGHHWETQQIPSLSPSQPWQRLLLRFKILRSLQAFVAVAARVFAHGAATLSP
notes: mature; not shown: N-terminal double-His6-TEV purification tag
B5: binds [5]; binds [6].
